Several values for one entry are separate records, joined by “and”; a condition that tells them apart may be missing. Equal values may be shown once.

First the molecules themselves.
B1: EZH2_(TAD2) peptide (aa 167-185 of EZH2) (peptide, UniProt Q15910 167-185, looked up)
peptide: NDEIFVELVNALGQYNDDD
notes: source: synthetic peptide (SynPeptide Co. Ltd.)
B2: EZH2_(TAD3) peptide (aa 220-231 of EZH2) (peptide, UniProt Q15910 220-231, looked up)
peptide: SDKIFEAISSMF
notes: as for B1
B3: p300 TAZ2 domain, untagged (p300_(TAZ2)) (domain or fragment, human, UniProt Q09472 1722-1812, looked up)
chain: AWTQSPGDSRRLSIQRCIQSLVHACQCRNANCSLPSCQKMKRVVQHTKGCKRKTNGGCPICKQLIALCCYHAKHCQENKCPVPFCLNIKQK
notes: TAZ2 domain of human p300, aa 1722-1812, with a tryptophan substituted at A1723; Uniformly 15N-labeled for NMR, unlabeled in mass photometry; they are printed there only as p300_(TAZ2); also called 15N-labeled p300_(TAZ2); source: E. coli Rosetta-2 (DE3) pLysS, purified (glutathione agarose, TEV cleavage, cation exchange or heparin)
B4: EZH2_(TAD1-TAD2-TAD3) (aa 142-231 of EZH2) with C-terminal 6xHis tag (domain or fragment)
chain: not shown
notes: EZH2, human, aa 142-231, holds TAD1, TAD2 and TAD3; pGEX-6P-1 vector; also called triple EZH2_(TAD1-TAD2-TAD3); source: E. coli Rosetta-2 (DE3) pLysS, purified (glutathione agarose, PreScission cleavage, Ni-NTA)
B5: EZH2_(TAD1) peptide (aa 142-154 of EZH2) (peptide, UniProt Q15910 142-154, looked up)
peptide: DGTFIEELIKNYD
notes: as for B1

Settings in all cases: both partners purified
For assay [1], the target named is B3. The assay is described as follows: NMR titration; 1H,15N HSQC of 50–100 μM 15N-labeled p300_(TAZ2), unlabeled peptide titrated; 298 K; 50 mM MES pH 6.5, 150 mM NaCl, 5 mM DTT.
In assay [2] the target is T1, GST-EZH2_(TAD1) (aa 142-160 of EZH2) (human, UniProt Q15910 142-160).
T1 construct: EZH2, human, aa 142-160, made by deletion from the aa 142-231 construct in pGEX-6P-1; Dimeric in mass photometry (~70 kDa); Limits differ from the synthetic EZH2_(TAD1) peptide (142-154); source: E. coli Rosetta-2 (DE3) pLysS, purified (glutathione agarose, Ni-NTA)
T1 chain (looked up): DGTFIEELIKNYDGKVHGD
Nature of the assay: mass photometry; 20 nM GST-EZH2_(TAD1) with p300_(TAZ2) (0.1 μM); room temperature; 50 mM Tris pH 7.5, 150 mM NaCl, 5 mM DTT.

For another assay, the target named is T2, GST-p300_(TAZ2) (human, UniProt Q09472 1722-1812, tryptophan substituted at A1723).
T2 construct: TAZ2 domain of human p300, aa 1722-1812, with a tryptophan substituted at A1723; pGEX-4T-1 vector with an additional TEV cleavage site; Dimeric in mass photometry (~80 kDa); also called GST-fusion of p300 TAZ2; source: E. coli Rosetta-2 (DE3) pLysS, purified (glutathione agarose, cation exchange or heparin)
T2 sequence (looked up): B3 chain
The assay is described as follows: mass photometry; 20 nM GST-p300_(TAZ2) with EZH2_(TAD1-TAD2) (5 μM) or EZH2_(TAD1-TAD2-TAD3) (1 μM); room temperature; 50 mM Tris pH 7.5, 150 mM NaCl, 5 mM DTT.

On to B1, for which the binding result in assay [1] is listed as “binds”. On to B2, for which the binding result in assay [1] was “binds”. As for B3, the “stoichiometry N” value in assay [2] is 1 p300_(TAZ2) per GST-EZH2_(TAD1) dimer and 2 p300_(TAZ2) per GST-EZH2_(TAD1) dimer. For the molecule B4, the “stoichiometry N” value with GST-p300_(TAZ2) was 6 GST-p300_(TAZ2) per EZH2_(TAD1-TAD2-TAD3).

B5: the binding result in assay [1] was “binds”.
